“Also recorded” adds a separate entry of the source.
Legend:
[1] = target: Coa-C311-636, Coa-F311-505, Coa-R0474-505; conditions: all three Coa fragments (Coa-C311-636, Coa-F311-505, Coa-R0474-505)
Source text: (§1) Apparent affinity values were generated through analysis of the half maximum binding in ELISA, using […] PRISM® Version 6.01.

[2] = test system: Coa-F, Coa-R0, Efb-N, Efb-O, Efb-A binding to Fg; assay: Inhibition by FBE5 scFv-Fc of Coa and Efb fragment binding to immobilized human Fg; design: species or system Staphylococcus aureus; conditions: scFv-Fc 0.5, 5, 50 μg/ml; Coa-F, Coa-R0, Efb-N, Efb-O 10 nM; Efb-A 750 nM
Method: To assess the inhibitory activity of anti-Coa scFv-Fc antibodies, 0.5 μg/well of human Fg was immobilized at 4° C. overnight in 50 mM Carbonate Buffer, pH 9.6. Indicated amounts (50, 5, 0.5 μg/ml) of scFv-Fcs prepared in 2% BSA+1×TBS+0.05% TWEEN® 20 were pre-incubated for 1 hour with a constant concentration of Coa or Efb fragments also prepared in 2% BSA+1×TBS+0.05% TWEEN® 20 at room temperature, 250 rpm shaking. Specifically, Coa-F, Coa-R0, Efb-N and Efb-O were at a fixed concentration of 10 nM; whereas Efb-A was at 750 nM. Fg-binding activity of each protein alone was also checked (no mAb control—0 μg/ml). The Fg-coated plate was blocked with 2% BSA-TBST and washed with PBST. […] Residual bound Coa and Efb fragments were detected with HRP-conjugated (HorseRadish Peroxidase-conjugated) α-GST-tag antibody, except for Efb-N, where an HRP-conjugated α-HIS-tag was used (see FIG. 18). HRP-tagged antibodies were diluted in 2% BSA+1×TBS+0.05% TWEEN® 20 and used at 1:10000 dilution. […] HRP signal was developed using […]™ OPD tablets using manufacturer's guidelines. Binding of Coa and Efb fragments to Fg (no mAb control) was set to 100% and residual binding to Fg of Coa and Efb fragments in the presence of different concentrations of antibodies was calculated and represented.
To assess the inhibitory activity of anti-Coa scFv-Fc antibodies, 0.5 μg/well of human Fg was immobilized at 4° C. overnight in 50 mM Carbonate Buffer, pH 9.6. Indicated amounts (0, 0.5, 5, and 50 μg/ml) of scFv-Fcs were pre-incubated for 1 hour with a constant concentration of Coa or Efb fragments. Specifically, Coa-F, Coa-R0, Efb-N and Efb-O were at a fixed concentration of 10 nM; whereas Efb-A was at 750 nM. Fg-binding activity of each protein alone was also checked (no mAb control—0 μg/ml). The Fg-coated plate was blocked with 2% BSA-PBST and washed with PBST. The pre-incubated mixture of Coa/Efb and anti-Coa scFv-Fc was transferred on the Fg-coated plate. Residual bound Coa and Efb fragments were detected with HRP-conjugated (HorseRadish Peroxidase-conjugated) α-GST-tag antibody, except for Efb-N, where an HRP-conjugated α-HIS-tag was used. Binding of Coa and Efb fragments to Fg (no mAb control) was set to 100% and residual binding to Fg of Coa and Efb fragments in the presence of different concentrations of antibodies was calculated and represented.

[3] = target: T1, Coa-R506-636 (Staphylococcus aureus, UniProt P07767); type: binding; conditions: 200 ng/well
T1 construct: the Coa-R is corresponding to the tandem-repeat region covering residue 506-636; GST (N); made in house; host or cells: E. coli BL21
Method: (§2) As well, binding was tested against Coa fragments, namely Coa-C311-636. Coa-F311-505. Coa-R0474-505 and Coa-R506-636. Recombinant proteins Efb-N30-105, Efb-A30-67, Efb-O68-98, Coa-C311-636, Coa-F311-505, Coa-R0474-505 and Coa-R506-636 were diluted in 50 mM sodium carbonate pH 9.6 and immobilized at the concentration of 200 ng/well for 1 hour at room temperature. Immobilized proteins were probed for recognition in a solid-phase binding assay with different quantities of LIG40 antibodies after blocking and washing. After washing, varying concentrations of LIG40 scFv-Fc antibodies were diluted in 2% BSA+1×PBS+0.05% TWEEN® 20 and incubated with the immobilized proteins for 1 hour at room temperature with shaking at 250 rpm. Bound scFv-Fcs were detected using polyclonal α-human IgG HRP-conjugated Ab diluted to 1:10000 in 2% BSA+1×PBS+0.05% TWEEN® 20. HRP-conjugated Ab was incubated for 1 hour at room temperature with shaking at 250 rpm.
as §1

[4] = test system: Coa-C311-636; assay: Solid-phase binding ELISA of scFv-Fc antibodies to Coa-C311-636; design: species or system Staphylococcus aureus; conditions: 200 ng/well
Method: as §2, §1

[5] = test system: Coa-F311-505 and Coa-R0474-505; assay: Solid-phase binding ELISA of LIG40 antibodies to Coa-F311-505 and Coa-R0474-505; design: species or system Staphylococcus aureus; conditions: 200 ng/well
Method: As well, binding was tested against Coa fragments, namely Coa-C311-636. Coa-F311-505. Coa-R0474-505 and Coa-R506-636. […] Immobilized proteins were probed for recognition in a solid-phase binding assay with different quantities of LIG40 antibodies after blocking and washing. […] HRP signal was developed with […]™ OPD using manufacturers guidelines. These 2 antibodies bound only Coa fragments in a dose dependent manner. No binding to truncated recombinant Efb proteins was observed.
For both antibodies, values in the range of 10^−10-10^−11 M were obtained.

[6] = test system: CoaC and CoaR; assay: Peptide (CoaRO, CoaRI) inhibition of LIG40 mAbs binding to immobilized CoaC and CoaR; design: species or system Staphylococcus aureus; conditions: mAbs 0.5 μg/ml; 200 ng/well
Method: To investigate if LIG40 mAbs could be inhibited by CoaRO and CoaRI peptides, CoaC and CoaR (200 ng/well) was immobilized at 4° C. overnight in 50 mM Carbonate Buffer, pH 9.6. A fixed concentration of mAbs (0.5 μg/ml) prepared in 2% BSA+1×TBS+0.05% TWEEN® 20 was added to the wells along with indicated amounts of CoaRO and CoaRI peptides prepared in 1X TBS. Incubation for 1 hour, room temperature, 250 rpm shaking followed. After washing, the levels of bound mAbs were determined using a polyclonal α-human IgG HRP-conjugated Ab diluted 1:10000 in 2% BSA+1×TBS+0.05% TWEEN® 20. […] The development was performed through […]™ OPD tablets following manufacturer's protocol. […] First, to achieve appreciable inhibition high concentration of peptides needed to be used (above 100 μM).
To investigate if LIG40 mAbs could be inhibited by CoaRO and CoaRI peptides, CoaC and CoaR (200 ng/well) was immobilized at 4° C. overnight in 50 mM Carbonate Buffer, pH 9.6. A fixed concentration of mAbs (0.5 μg/ml) was added to the wells along with, indicated amounts of CoaRO and CoaRI peptides. Incubation for 1 hour, room temperature, 250 rpm shaking followed. After washing, […] were incubated with polyclonal α-human IgG HRP-conjugated Ab. […] First, to achieve appreciable inhibition high concentration of peptides needed to be used (above 100 μM).

Molecule	apparent Kd of anti-CoaC mAbs to Coa fragments (EC50 in ELISA) [1]	inhibition of binding to Fg of all proteins tested [2]	binding to Coa-R506-636 [3]	binding to Coa-C311-636 [4]	binding to Coa-F311-505 and Coa-R0474-505 [5]	inhibition of LIG40 mAb binding to CoaC and CoaR by peptides [6]
FBE5-F11: VH SEQ ID NO: 81, VL SEQ ID NO: 111 (antibody, V domains shown) VH: QVQLQESGGGVVQPGRSLRLSCAASGFTFSSYGMHWVRQAPGKGLEWVAVISYDGSNKYYADSVKGRFTISRDNSKNTLYLQMNSLRAEDTAVYYCAKDLASSGFDYWGQGTLVTVSS VL: QSVLTQPPSVSAAPGQKVTISCSGSSSNIGNNYVSWYQQLPGTAPKLLIYDNNKRPSGIPDRFSGSKSGTSATLGITGLQTGDEADYYCGTWDSSLSAEVFGGGTKLTVL	highest affinity	dose dependent inhibition of all proteins tested; also recorded: marked inhibition against all fragments of Coa and Efb	–	–	–	–
LIG40-D8: VH SEQ ID NO: 100, VL SEQ ID NO: 130; selected against Coa-R506-636 (antibody, V domains shown) VH: EVQLVESGGGVVQPGRSLRLSCAASGFTFSSYGMHWVRQAPGKGLEWVAVIWYDGSNKYYADSVKGRFTISRDNSKNTLYLQMNSLRAEDTAVYYCARDYHGDGFDYWGQGTLVTVSS VL: DIQMTQSPSSLSASVGDTVTITCRASQDINNYLAWFQQKPGKAPKSLISAASSLQNGVPLRFSGSASGADFTLTISGLQPEDSGTYYCQQYDVFPITFGPGTKVDIK	–	–	bound	bound	detected to a minor extent; also recorded: minor binding	only impaired in its binding activity by CoaRO peptide

From patent US11407819B2, “Compositions and use of a fibrinogen binding motif present in EFB and COA for therapeutics and vaccines against Staphylococcus aureus” (priority 2013, dated 2022)
